Measurements: publication PMC6770577, “TRPM6 N-Terminal CaM- and S100A1-Binding Domains” (International Journal of Molecular Sciences, 2019)

T1: S100A1 (Homo sapiens), P23297
T1 chain: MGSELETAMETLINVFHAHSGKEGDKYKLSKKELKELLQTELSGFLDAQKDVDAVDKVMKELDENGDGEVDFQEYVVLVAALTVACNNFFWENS


Biological target: T1, S100A1 (Homo sapiens), P23297
Experiment: steady-state fluorescence anisotropy
Settings: modification not given

Binder | Kd
LIGRAYRSNYTAAHFA [TRPM6np K532A/R531A/R535A 520-535, Q9BX84] | 81.8 µM
LIGRAYASNYTAAHFA [TRPM6np K532A/R531A/R535A/R526A 520-535, Q9BX84] | 130 µM
LIGRAYRSNYTAAHFR [TRPM6np K532A/R531A 520-535, Q9BX84] | 50.2 µM
LIGRAYRSNYTRAHFR [TRPM6np K532A 520-535, Q9BX84] | 24.8 µM
